# Assay results as given in patent US20110105394A1 (Novo Nordisk, published 2011).
# *1 amine or outer side, *2 acyl side, *3 side chain or, on linkers, in order; H or OH if unused. Bridges are numbered along the chain shown (N, C = ends). Where no end group is shown, it is not given here. The star is where a group is joined. X2 = (S)‑4‑Carboxy‑4‑(19-carboxynonadecanoylamino)butyryl, O=C(O)CCCCCCCCCCCCCCCCCCC(=O)N[C@@H](CCC(=O)*)C(=O)O; C20 diacid = O=C(O)CCCCCCCCCCCCCCCCCCC(=O)*; C18 diacid = O=C(O)CCCCCCCCCCCCCCCCC(=O)*; γGlu = O=C(O)[C@H](CCC(=O)[*:2])N[*:1]; AEEA = NCCOCCOCC(=O)O
# T1: Amylin 3(a) receptor (human calcitonin receptor (CTa) with RAMP-3) (human, UniProt P30988 25-474; O60896 24-148, limits assumed)
# T1 sequence (looked up) 1: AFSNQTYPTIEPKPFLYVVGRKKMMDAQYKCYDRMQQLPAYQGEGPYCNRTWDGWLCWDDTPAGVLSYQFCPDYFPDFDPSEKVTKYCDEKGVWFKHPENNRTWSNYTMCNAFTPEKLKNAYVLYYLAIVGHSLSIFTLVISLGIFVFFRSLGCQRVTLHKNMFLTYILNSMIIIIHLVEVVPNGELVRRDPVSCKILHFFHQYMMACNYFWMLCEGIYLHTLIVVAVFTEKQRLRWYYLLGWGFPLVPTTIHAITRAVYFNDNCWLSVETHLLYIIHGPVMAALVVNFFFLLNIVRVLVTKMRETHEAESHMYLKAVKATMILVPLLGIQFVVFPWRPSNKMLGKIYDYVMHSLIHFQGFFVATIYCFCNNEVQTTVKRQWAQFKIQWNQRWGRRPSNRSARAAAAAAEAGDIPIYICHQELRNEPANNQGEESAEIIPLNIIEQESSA
# T1 sequence (looked up) 2: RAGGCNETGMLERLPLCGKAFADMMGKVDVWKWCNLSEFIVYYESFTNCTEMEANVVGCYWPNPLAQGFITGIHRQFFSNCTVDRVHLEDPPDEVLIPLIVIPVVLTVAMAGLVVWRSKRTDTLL
# Target: T1, Amylin 3(a) receptor (human calcitonin …)
# Assay: cell-based or functional assay
row,Binder,Potency Luciferase
1,X2-ERECNTATCATQRLANFLRHSSNNFGAPLSSTNVGSNTY-NH2 (disulfide 4-9; SMILES CC(C)C[C@H](NC(=O)[C@H](CCCNC(=N)N)NC(=O)[C@H](CCC(N)=O)NC(=O)[C@@H](NC(=O)[C@H](C)NC(=O)[C@@H]1CSSC[C@H](NC(=O)[C@H](CCC(=O)O)NC(=O)[C@H](CCCNC(=N)N)NC(=O)[C@H](CCC(=O)O)NC(=O)CC[C@H](NC(=O)CCCCCCCCCCCCCCCCCCC(=O)O)C(=O)O)C(=O)N[C@@H](CC(N)=O)C(=O)N[C@@H]([C@@H](C)O)C(=O)N[C@@H](C)C(=O)N[C@@H]([C@@H](C)O)C(=O)N1)[C@@H](C)O)C(=O)N[C@@H](C)C(=O)N[C@@H](CC(N)=O)C(=O)N[C@@H](Cc1ccccc1)C(=O)N[C@@H](CC(C)C)C(=O)N[C@@H](CCCNC(=N)N)C(=O)N[C@@H](Cc1c[nH]cn1)C(=O)N[C@@H](CO)C(=O)N[C@@H](CO)C(=O)N[C@@H](CC(N)=O)C(=O)N[C@@H](CC(N)=O)C(=O)N[C@@H](Cc1ccccc1)C(=O)NCC(=O)N[C@@H](C)C(=O)N1CCC[C@H]1C(=O)N[C@@H](CC(C)C)C(=O)N[C@@H](CO)C(=O)N[C@@H](CO)C(=O)N[C@H](C(=O)N[C@@H](CC(N)=O)C(=O)N[C@H](C(=O)NCC(=O)N[C@@H](CO)C(=O)N[C@@H](CC(N)=O)C(=O)N[C@H](C(=O)N[C@@H](Cc1ccc(O)cc1)C(N)=O)[C@@H](C)O)C(C)C)[C@@H](C)O),0.2 nM
2,{C18 diacid-γGlu-AEEA-AEEA}-RCNTATCATQRLANFLHHSSNNFGPILPPTNVGSNTY-NH2 (disulfide 2-7; SMILES CC[C@H](C)[C@H](NC(=O)[C@@H]1CCCN1C(=O)CNC(=O)[C@H](Cc1ccccc1)NC(=O)[C@H](CC(N)=O)NC(=O)[C@H](CC(N)=O)NC(=O)[C@H](CO)NC(=O)[C@H](CO)NC(=O)[C@H](Cc1c[nH]cn1)NC(=O)[C@H](Cc1c[nH]cn1)NC(=O)[C@H](CC(C)C)NC(=O)[C@H](Cc1ccccc1)NC(=O)[C@H](CC(N)=O)NC(=O)[C@H](C)NC(=O)[C@H](CC(C)C)NC(=O)[C@H](CCCNC(=N)N)NC(=O)[C@H](CCC(N)=O)NC(=O)[C@@H](NC(=O)[C@H](C)NC(=O)[C@@H]1CSSC[C@H](NC(=O)[C@H](CCCNC(=N)N)NC(=O)COCCOCCNC(=O)COCCOCCNC(=O)CC[C@H](NC(=O)CCCCCCCCCCCCCCCCC(=O)O)C(=O)O)C(=O)N[C@@H](CC(N)=O)C(=O)N[C@@H]([C@@H](C)O)C(=O)N[C@@H](C)C(=O)N[C@@H]([C@@H](C)O)C(=O)N1)[C@@H](C)O)C(=O)N[C@@H](CC(C)C)C(=O)N1CCC[C@H]1C(=O)N1CCC[C@H]1C(=O)N[C@H](C(=O)N[C@@H](CC(N)=O)C(=O)N[C@H](C(=O)NCC(=O)N[C@@H](CO)C(=O)N[C@@H](CC(N)=O)C(=O)N[C@H](C(=O)N[C@@H](Cc1ccc(O)cc1)C(N)=O)[C@@H](C)O)C(C)C)[C@@H](C)O),0.03 nM
3,X2-ERECNTATCATQRLADFLHHSSNNFGAPLSSTNVGSNTY-NH2 (disulfide 4-9; SMILES CC(C)C[C@H](NC(=O)[C@H](CCCNC(=N)N)NC(=O)[C@H](CCC(N)=O)NC(=O)[C@@H](NC(=O)[C@H](C)NC(=O)[C@@H]1CSSC[C@H](NC(=O)[C@H](CCC(=O)O)NC(=O)[C@H](CCCNC(=N)N)NC(=O)[C@H](CCC(=O)O)NC(=O)CC[C@H](NC(=O)CCCCCCCCCCCCCCCCCCC(=O)O)C(=O)O)C(=O)N[C@@H](CC(N)=O)C(=O)N[C@@H]([C@@H](C)O)C(=O)N[C@@H](C)C(=O)N[C@@H]([C@@H](C)O)C(=O)N1)[C@@H](C)O)C(=O)N[C@@H](C)C(=O)N[C@@H](CC(=O)O)C(=O)N[C@@H](Cc1ccccc1)C(=O)N[C@@H](CC(C)C)C(=O)N[C@@H](Cc1c[nH]cn1)C(=O)N[C@@H](Cc1c[nH]cn1)C(=O)N[C@@H](CO)C(=O)N[C@@H](CO)C(=O)N[C@@H](CC(N)=O)C(=O)N[C@@H](CC(N)=O)C(=O)N[C@@H](Cc1ccccc1)C(=O)NCC(=O)N[C@@H](C)C(=O)N1CCC[C@H]1C(=O)N[C@@H](CC(C)C)C(=O)N[C@@H](CO)C(=O)N[C@@H](CO)C(=O)N[C@H](C(=O)N[C@@H](CC(N)=O)C(=O)N[C@H](C(=O)NCC(=O)N[C@@H](CO)C(=O)N[C@@H](CC(N)=O)C(=O)N[C@H](C(=O)N[C@@H](Cc1ccc(O)cc1)C(N)=O)[C@@H](C)O)C(C)C)[C@@H](C)O),0.6 nM

# Other lines, results leading:
row,Potency Luciferase,Binder
1,0.1 nM,"{C20 diacid-γGlu}-CNTATCATQRLANFLHHSSNNFEPILPPTNVGSNTY-NH2 (disulfide 1-6; SMILES CC[C@H](C)[C@H](NC(=O)[C@@H]1CCCN1C(=O)[C@H](CCC(=O)O)NC(=O)[C@H](Cc1ccccc1)NC(=O)[C@H](CC(N)=O)NC(=O)[C@H](CC(N)=O)NC(=O)[C@H](CO)NC(=O)[C@H](CO)NC(=O)[C@H](Cc1c[nH]cn1)NC(=O)[C@H](Cc1c[nH]cn1)NC(=O)[C@H](CC(C)C)NC(=O)[C@H](Cc1ccccc1)NC(=O)[C@H](CC(N)=O)NC(=O)[C@H](C)NC(=O)[C@H](CC(C)C)NC(=O)[C@H](CCCNC(=N)N)NC(=O)[C@H](CCC(N)=O)NC(=O)[C@@H](NC(=O)[C@H](C)NC(=O)[C@@H]1CSSC[C@H](NC(=O)CC[C@H](NC(=O)CCCCCCCCCCCCCCCCCCC(=O)O)C(=O)O)C(=O)N[C@@H](CC(N)=O)C(=O)N[C@@H]([C@@H](C)O)C(=O)N[C@@H](C)C(=O)N[C@@H]([C@@H](C)O)C(=O)N1)[C@@H](C)O)C(=O)N[C@@H](CC(C)C)C(=O)N1CCC[C@H]1C(=O)N1CCC[C@H]1C(=O)N[C@H](C(=O)N[C@@H](CC(N)=O)C(=O)N[C@H](C(=O)NCC(=O)N[C@@H](CO)C(=O)N[C@@H](CC(N)=O)C(=O)N[C@H](C(=O)N[C@@H](Cc1ccc(O)cc1)C(N)=O)[C@@H](C)O)C(C)C)[C@@H](C)O) [N-alpha-[(S)-4-Carboxy-4-(19-carboxynonadecanoylamino)butyryl]-[His17,Glu24]-pramlintide (2-37)]"
2,0.1 nM,"{C20 diacid-γGlu}-CNTATCATQRLADFLHHSSNNFGPILPPTNVGSNTY-NH2 (disulfide 1-6; SMILES CC[C@H](C)[C@H](NC(=O)[C@@H]1CCCN1C(=O)CNC(=O)[C@H](Cc1ccccc1)NC(=O)[C@H](CC(N)=O)NC(=O)[C@H](CC(N)=O)NC(=O)[C@H](CO)NC(=O)[C@H](CO)NC(=O)[C@H](Cc1c[nH]cn1)NC(=O)[C@H](Cc1c[nH]cn1)NC(=O)[C@H](CC(C)C)NC(=O)[C@H](Cc1ccccc1)NC(=O)[C@H](CC(=O)O)NC(=O)[C@H](C)NC(=O)[C@H](CC(C)C)NC(=O)[C@H](CCCNC(=N)N)NC(=O)[C@H](CCC(N)=O)NC(=O)[C@@H](NC(=O)[C@H](C)NC(=O)[C@@H]1CSSC[C@H](NC(=O)CC[C@H](NC(=O)CCCCCCCCCCCCCCCCCCC(=O)O)C(=O)O)C(=O)N[C@@H](CC(N)=O)C(=O)N[C@@H]([C@@H](C)O)C(=O)N[C@@H](C)C(=O)N[C@@H]([C@@H](C)O)C(=O)N1)[C@@H](C)O)C(=O)N[C@@H](CC(C)C)C(=O)N1CCC[C@H]1C(=O)N1CCC[C@H]1C(=O)N[C@H](C(=O)N[C@@H](CC(N)=O)C(=O)N[C@H](C(=O)NCC(=O)N[C@@H](CO)C(=O)N[C@@H](CC(N)=O)C(=O)N[C@H](C(=O)N[C@@H](Cc1ccc(O)cc1)C(N)=O)[C@@H](C)O)C(C)C)[C@@H](C)O) [N-alpha-[(S)-4-Carboxy-4-(19-carboxynonadecanoylamino)butyryl]-[Asp14,His17]-pramlintide (2-37)]"
3,0.2 nM,"HHCNTATCATQRLANFLHRSSNNFGPILPPTNVGSNTY-NH2 (disulfide 3-8; not fully specified (N-terminus); printed as N-alpha-[(S)-4-Carboxy-4-(19-carboxynonadecanoylamino)butyryl]-His-[His1,His17,Arg18]-pramlintide) [N-alpha-[(S)-4-Carboxy-4-(19-carboxynonadecanoylamino)butyryl]-His-[His1,His17,Arg18]-pramlintide]"
